The record followed here is the NTF2 design screens of Basanta et al. (2020).

The data set can be described thus: protease stability score; higher = more stable; yeast display proteolysis, trypsin and chymotrypsin.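 Further: log10 excess protease needed over predicted unfolded state with 0 meaning unfolded.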
Turning to “DETALRIAEDWFRALQNGNPERMQENVDPNARVQIGDKELHGREQIHELAQKIKEEMRIEVNITHVDVHGEHLRLEFDIRVDINGKPVTNHNTAEFNVENGSIKHISFDIDPRQLNKMQK”, the protease stability score is 0.746.

For “DETAMEVAERFLENINNGNPEEATKQFDPNARFIVGDKRLTGQEQVKSEIEDQKKHIDVNYDVKRVEIDGDKALLELDVQNEHNGRPRTDSAVITMEAHNGKITHMQRDHDG”, the protease stability score was -0.594.

Sequence “DETAQDLVTTLIEAWKTNDPDSVANLMDPNATVKIGDKSVHGKKQLEEMLKKLRDEMTIDIKRVDVKVNNGDAKVNARATFTHNGKPDSRTMSAEVEWNGDKVKEFRVHWEQ” returned a protease stability score of 1.

Consider “DETAQEQAKKLFQARQTNDPDKVNNLLDENARVNIGDTSVQGREDASKEVERQHRESHQSVELKEVKVDGDHVELHYVLTKQENGKPDSNKASMNVQIHNGKAQDVQIQTSK”, for which the protease stability score was -0.35.

Regarding “DETAQKVANQFFEALKNGDPDQVRRLLDKNATVRIGEWQVHGREQASKDVHQNKQHAEYDWRIRSVKVTGNKVDIDAEVTYQHNGEPSRRQMVVNVVVTNGKIQDIHVRDEQ”, the protease stability score worked out at 1.43.

On to “DETAQNLIKELNRAWNENNENQVAELMDPNAKLQIGNKVLTGRKQRMEEIRSQTHSMRLDYKYEDVKAKNGKVTANLRYVADVNGRPVDVTVSVKADVHNGVIVRLEVRLPPDVEEELKR”, for which the protease stability score came to 0.219.

Turning to “DETARDRLEELWRTMERNDPDKLTRQADKDVEVHVGDKELHGMKQVATTLAHEMREMDVEIEIREVNVQGNNVEVDMIFRAKVNGKPIHNKASFVVTFNNGKAESIELRVPPEFQKQKRK”, the protease stability score was -0.222.

In turn, “DETARHRLEEMWTNIQRNNPSEVAKLADKDVRVRVGDKEIHGREQLNHHIKRFNDEIRMNVDHISIKVDGNEADIHIRAEFEVNGTPFEMTIDVKISVHNGKIKEIDRQVSEEEKRRLKK” had a protease stability score of 0.806.

Regarding “DETASRAAERYMKALQTGDPDEVVKQIDPNVHVRVGDKEVQGKEQFRKKQERDKKQARYHIKHVTFNVEGDKVRVDVIFRKHHNGQPRHDRMEQRMSVRGDKITHQENHKTG”, the protease stability score was 0.02.

“DETATEAAQRMMDNWRTNSPEDYAKLADKNVEVRVGDKTYTGRDELRSRLQRKREEQHIDLRTYHFRVNGDEVTVRARYIENHNGRPQHKVVRFVFRLHNGRVKEIERHDDS” yielded a protease stability score of 0.22.

On to “DETAVEIARDFLQAITNNNPQEAERLADPNVRWTVGDKSYSGMNEFSKIIKDLNDRSRFEYTDVKLDVTNGRARIELRMSRTVNGKPQSFDMVMNVVVHNGRIKHVHVHNKQ”, for which the protease stability score amounted to 1.4.

As to “DETAVHAARRYLHAVTEGDPDKVNEQVDPNAKLTYGDKEVHGSSQVKEEVETQNRHSRIQYDSVTFDHQGDKVRADIDMKQDSNGRPKRRKMVVDFRAHNGKLQHVNAQDDN”, the protease stability score was -0.224.

Sequence “DETAVKVIHKVVEAINTNNPKQVMKNMDKDVHITVGDKEYEGKEEFAKQVERDLREQRVDIDIKRLNVHNGKVHVKFTAQQQINGKPISYKATARAEVQNGKVQHMEIRVPEELQRKRES” gave a protease stability score of -0.272.

On to “DETAVRVFRKIEDAYQKGDPDKITNLLDENVEMHVGDKRVHGRETMAEHLKKQLDEIRQKIKSVTLHDKGDTIRIDVLMVEEHNGQPRESRYHVHAKIHNGKMKEREQTSVQ”, for which the protease stability score was -0.095.

In the case of “DETAVTVLTEIVKAQRQGDHNRFNELVDPNAKIRVGDKRVTGREQLTHEFHKNLKHMRVHQKVHDMKDHNGRVQATAQRRSNHNGKPKEVEVQFQATARNGRLTQMEMHSSG”, the protease stability score is -0.643.

With “DETDKAHEFMRKMKRALDQNDPDKLMDLFDPNAKVKVGEKKIHGRERISNDLQRHAHNADHIHMEIQDMKVSGDKINITFRVTSVVNGNTRSNRVLIRARIDNGHIKAVDVQQK”, the protease stability score amounted to 0.855.

As to “DETDKAQKQFEHYERIAHTGDPDEMQRQADENARVEYGDKEVRGRKDVKKWAKDIKDTVDSVEFDIKSFEVQGDKITINVNIVYRSDGRQQSMEVNMVFDVRGDDIQIRSMKFR”, the protease stability score was 0.434.

Turning to “DETDLEKFATIVQQNNPHEFKKLLPEDAKMTYGDKTVHGREEIQRILENLVKDVDRLRIKHYKISGDKIEIDLVVNVNGRNIRFSLRAKMHNGQIKFFEIEVRDDDVKHELEKMLS”, the protease stability score was found to be 0.069.

Turning to “DETDLERWARTFIEVFQTGDENRFRKMVDPNARLNVGEKNVHGKEEMAKAAKKLRDKVDHMHVRDLQINPPTIEIHIDFHHNGQKRSQVYYVEMHNGRVTEIHVQTS”, the protease stability score is 1.05.

Sequence “DETDLLRKLIHHLKTAVDEGDPDKYVKNFDPNAKIDVGDKQWHGHDEIRKKMEDLVRQADHVRLTIDHMQVQGDKFNIHATIKYDNNGEDVERKFVLTATKKGDKAKAEFVTEQ” returned a protease stability score of 0.895.

Turning to “DETDQVETLLKRFKEAVDHGDKHQARHLFRDDVRIKYGDKEIHGRDNLAHWIVDRARRADHVDFTIRQFDVRNGRVSVDVEVRYDVNGKHDHKRYTLRADLRNGRATAVTIEVR”, the protease stability score turned out to be 0.344.

The sequence “DETDTAKDFAEELRTIFESNDFKRYQQLFDPNAKIHVGEKRLHGDRRVNNLIKEIFDRADHLHFDLREFEVKGEKVRIRYVEKQKINGKDETRDVVMVAVKQGDKMYITEVRHQ” gave a protease stability score of 1.13.

Turning to “DETEAKKNVEVVEQNDWDTFEDQVDENAKMKVGDKEIHGREQFSEFADNMKKNADHVEVKSVDRRGDEINIEMVVSVNGKRVTYVVQFVVNNGKIHDVQFDARSEDDERFLKEVQS”, the protease stability score was found to be 0.619.

Sequence “DETEDKKAQQLAKAINDGDEHDVRKMMDKDVKVDVGDKQLHGREQAAKWMSRHRREQRRTIEVTDVKMHGEKAELDANLRVDVNGQPRTHRVRIIVSITNGRLQHLEIHMDPRFEQSVQS” had a protease stability score of -0.25.

The sequence “DETEEVQKLVHRWRQAMEDGNPDDLRKNMDEDAEMRYGDKSWHGRENIAQNLHKERQRADSISITIEDMDHENGKAVVHLNITFTVNGRKETKRYDLDVEVNGDKLKIKQIQQE” showed a protease stability score of 0.247.

“DETEHAKRLAEEFVRNVETGDESRLVELADPNAKFEVGDTTVHGMEDYAHNMHKRRNEADHFDFKVKSVHVSNGNIRVDIDYRVNHNGKVEKQRMVIYMTKHGDKYRIKKIEVS” registered a protease stability score of -0.082.

“DETEIRLFHQFLRAIETNDEERAQQLADEDARYRYGNKEIDGMTQFQEDMDDKHKEARYSYSIDSVHDEPNRVVVEARAMVKINGKPTTYQVELHAHFHNGRMKKFTASVPEETLQSIRS” yielded a protease stability score of 0.054.

“DETEKADQMVHDLEEAIKTGDPDEISNQADPNVSFHYGDKTFHGREKLAEWFLELQKRVDHMHLDIKDIEVQGDKATITMQMVLDKNGDDERKDIRVEAQYHNGRLTISFAEAR” yielded a protease stability score of 2.15.

Take “DETEKAKRFFDEWLKALHRGDPDEVKKLADPNVRFEVGDKEIHGRSNMAKHVTDLRKRADSFSASIDSIDIKGEKVVIDAKLTYNHNGRKTHNKVEFDAKVHNGKIKLKEIIVR”: the protease stability score is -0.257.

Turning to “DETEKAKTFMDELRKVLQTGDEEQISRNMDPNARLNVGDKTIHGRERLAKEMSDEVKRADHIDIKVKSISVHNGKVRVDFFFTLEYNGQHRRTRRIMHADISDGQIKIKQIHDN”, the protease stability score is 1.4.

“DETELRKMQEVQEHNDPDEWKKQADKDVRLKVGNKRLHGREDVHRYLKTHRDQADHIRYKSFDFDGDKADITFHAVVNGRTFEANQEIRIHNGRIQEVNIHYTDDQVQRELEELFG” registered a protease stability score of -0.195.

As to “DETEQAKKLLNDIENIFRTGDPKQLEKLAPPDVDVRVGDKEVHGKEQVVEELQRRQESFDHIEFNLHRVSVSGDKYRLDYEVRFDHNGRTETYRVVVVYVNNNGRLQDKSMTIK”, the protease stability score is 0.684.

The sequence “DETETMEQMIQDLHRALQQGDHETVKELIPPDAEMQIGDKTWHGKEQVARHLVEHAQTADHIDIDIKSIKIEGNKLVVNLKVVYDRNGHRETQTYELMVDVNNGEFRIVEQRQP” displayed a protease stability score of 0.921.

“DETEVAHRFLNQERRNWKTGNRQSFENMFRDNVRAQYGDKTVTGREDMKRWLDRILKEVDHVRIEIKDLKREPGRVSLDVVVVFEHNGHKDKKRYVIDAVASGDKMIIDQVQDK”: the protease stability score came to 0.165.

“DETEWREFAEEFIRLFQQGDEDRLRKLIDKNAKIRYGDREVDGRDSIAKQIRDNREQIDRIDLVDMKVRGEHITITIDVDHNGQRRRIVIHINVHNGHIKNVEVDSG” registered a protease stability score of 1.02.

“DETHDAHRKAEEIITALRTGDPKQAESLVPENVKIDVGDKTIHGKEQYSKEFKKFTDRVDKVEVRIKHVHVQGDKIKIRMEARENVDGQDKRYQFVLIFDRHNGKDQAVSIKVD” showed a protease stability score of 1.02.

“DETHKAKEMLKEFHTAVSKGDEDRYSNLLDENVHITYGDKTVHGREEAVKLFTELQERADHVDVDVVSVDVKGETVKARIRINFVYDGREDRHEFTLIAIVDNGRFVIKSIIQK”: the protease stability score was determined as 1.22.

With “DETHLKLLEHFFKQWMTGNQQELRSLADPNVEYVYGEHRVRGREQMAKDLVRELHEMTISMRSVTSDIRGDQAVVTVNFQQDKNGEPDEVNVKMRAEVHNGRIKSMNAKFHQ”, the protease stability score is -0.287.

As to “DETIHDQAQRFFRDVQTGDEENIHKYFDPNARFVVGDKDLHGMSEVAEDLARKWNEWRVDVRDYRIKVHNGRIEVHIDARFDHDGQPEDRSEVVVYTMKNGQVQMVEFHKQG”, the protease stability score came out at 0.464.

“DETKAAQVAAELISAIVHGDTDRALELADKDVRADIGENKVHGREEMHKMVEQYDKSVDHASVKTYKVSGNSVKVNVEVTHNGRKRTVDFTAEAHNGKAKQVTAEVK”: the protease stability score was -0.768.

Sequence “DETKDTEAAERYLENFKTGDPKKLANQFDKNAKVVVGDNEIHGREELQRNNESFVKRVDHIDLQTVDMRGDKFRYQVVIKINGNSVIVNYSIVMHNGKFERNHVDPKDMDRLKQ” returned a protease stability score of 0.363.

“DETKLMTELAEKLNRVIQKNNPDEARKLMDPNARQQVGDTRYHGNEQLAEYMKDMHERYDHVEVDVKDVNVSGDHATLEAKVHFRHNGKNTTINQNIVATIHNGKVVLKQVTSK” displayed a protease stability score of 0.465.

“DETKQAERVAETEKRIWERGDPDKLNEMFDPNVRIDVGDKEVNGREKLKEYIERILTQVDHVRLNFTSISVHNGSVELKYTLVREDNGRRRRDTFVIHMELHNGQARVTSVRRG” came in with a protease stability score of 0.405.

In turn, “DETKQQELIHRLLEALETGNPDEYIKNLDKDVRVVVGDTEVHGREDLKKLFERLTHQIDHQHIKDYKVSNGQADVKLVVVNNGQERRLTIKIVVRNGHVKEVVWNDR” registered a protease stability score of 1.77.

The sequence “DETKVKKLAETVIKILFSGDKKTAKDLLKPNVKFEALDVELHGPDQVRKYYDKVKKHGAEMHVQRNEVKGNTAEVEYVLKVGGTEIKVKATLYVKDEKVDKAEVNNSEEYKKYVQKG” returned a protease stability score of -0.018.

The sequence “DETKVKKLVVHVAQVLMSGQVDEAQKFLNPDVEFHAGNVTLHGPEQVLEYYKKIQKRGVEFHVKEAEVHGNTVEVKYDVKFDGTEQTLKFKAEVKDTVVEKAELEIDEDYVRAVQKG” registered a protease stability score of 1.11.

Turning to “DETLFELIQRLIEAYKHGNPDELKKQADPNARVKVGDKELHGMEEIAKELVTQRKQQRLSYLSINNDDDPNHARVRFNVEVERNGQPRTKRFELRAETHNGRLISMEVQSRR”, the protease stability score worked out at 0.232.
